The source of these data is the Immune Epitope Database (IEDB).

Some targets named below: HLA-A*02:06; HLA-A*02:01; HLA-A*02:03; HLA-A*68:02; HLA-A*02:02.
Assay in all cases: IEDB peptide-MHC binding, purified MHC/competitive/radioactivity; ≥ and ≤ were set here for values at or beyond the usual limits of such assays
[1] abbreviates: source organism: Vaccinia virus WR.
[2] abbreviates: source organism: Mammarenavirus whitewaterense.
Where [3] appears, read: source organism: Mammarenavirus lassaense.
Setting [4] is: source organism: Influenza A virus.
[5] abbreviates: source organism: Hepacivirus hominis.

A word on the IC50: it is the concentration that gives 50% inhibition. In the case of LMIGNYFSGV, the IC50 with HLA-A*02:06 (setting [1]) came out at 0.13 nM; in the assay with HLA-A*02:01 (setting [1]) it was 0.27 nM; in the assay with HLA-A*02:03 (setting [1]), 0.093 nM; in the assay with HLA-A*68:02 (setting [1]), 160 nM; with HLA-A*02:02 (setting [1]), 0.13 nM.

Consider LMSFTILCL, for which the IC50 was determined as 1.8 nM with HLA-A*02:06 (source organism: SARS-CoV1); 0.14 nM with HLA-A*02:01 (source organism: SARS-CoV1); 16 nM in the assay with HLA-A*02:03 (source organism: SARS-CoV1); 709 nM in the assay with HLA-A*68:02 (source organism: SARS-CoV1); 0.27 nM in the assay with HLA-A*02:02 (source organism: SARS-CoV1).

On to LMSFTILCLV, for which the IC50 in the assay with HLA-A*02:06 (source organism: SARS-CoV1) amounted to 40 nM; with HLA-A*02:01 (source organism: SARS-CoV1) it was 8.4 nM; with HLA-A*02:03 (source organism: SARS-CoV1) it was 91 nM; with HLA-A*68:02 (source organism: SARS-CoV1) it was 40 nM; with HLA-A*02:02 (source organism: SARS-CoV1), 0.34 nM.

In the case of LMTLDDLAI, the IC50 came out at 288 nM in the assay with HLA-A*02:06 (setting [1]); 74 nM with HLA-A*02:01 (setting [1]); 76 nM with HLA-A*02:03 (setting [1]); 4410 nM with HLA-A*68:02 (setting [1]); 52 nM in the assay with HLA-A*02:02 (setting [1]).

With LNASYITPYV, the IC50 worked out at 38 nM with HLA-A*02:06 (setting [2]); 87 nM in the assay with HLA-A*02:01 (setting [2]); 1070 nM in the assay with HLA-A*02:03 (setting [2]); 13 nM with HLA-A*68:02 (setting [2]); 33 nM with HLA-A*02:02 (setting [2]).

Regarding LNCLSLLLSV, the IC50 in the assay with HLA-A*02:06 (setting [3]) turned out to be 251 nM; in the assay with HLA-A*02:01 (setting [3]), 191 nM; in the assay with HLA-A*02:03 (setting [3]) it was 230 nM; with HLA-A*68:02 (setting [3]) it was 4070 nM; in the assay with HLA-A*02:02 (setting [3]), 124 nM.

With LTNAISSRV, the IC50 worked out at 145 nM with HLA-A*02:06 (setting [1]); 916 nM in the assay with HLA-A*02:01 (setting [1]); 19 nM in the assay with HLA-A*02:03 (setting [1]); 16 nM with HLA-A*68:02 (setting [1]); 146 nM with HLA-A*02:02 (setting [1]).

With LTTVFIKYV, the IC50 in the assay with HLA-A*02:06 (setting [1]) amounted to 130 nM; with HLA-A*02:01 (setting [1]), 1060 nM; in the assay with HLA-A*02:03 (setting [1]), 676 nM; in the assay with HLA-A*68:02 (setting [1]) it was 330 nM; with HLA-A*02:02 (setting [1]) it was 3640 nM.

Regarding LVASSGTLEFI, the IC50 with HLA-A*02:06 (setting [4]) is 305 nM; in the assay with HLA-A*02:01 (setting [4]), 3730 nM; in the assay with HLA-A*02:03 (setting [4]), 697 nM; with HLA-A*68:02 (setting [4]) it was 199 nM; with HLA-A*02:02 (setting [4]), 153 nM.

With LVFLWLLWPV, the half-maximal inhibitory concentration (IC50) with HLA-A*02:06 (source organism: SARS-CoV1) came out at 0.56 nM; with HLA-A*02:01 (source organism: SARS-CoV1), 4.9 nM; in the assay with HLA-A*02:03 (source organism: SARS-CoV1), 1.9 nM; with HLA-A*68:02 (source organism: SARS-CoV1) it was 18 nM; with HLA-A*02:02 (source organism: SARS-CoV1), 0.93 nM.

As for LVIGFLFLA, the IC50 with HLA-A*02:06 (source organism: SARS-CoV1) is 0.095 nM; in the assay with HLA-A*02:01 (source organism: SARS-CoV1), 1.4 nM; in the assay with HLA-A*02:03 (source organism: SARS-CoV1) it was 20 nM; with HLA-A*68:02 (source organism: SARS-CoV1) it was 26 nM; with HLA-A*02:02 (source organism: SARS-CoV1) it was 7.4 nM.

Take LVIGVAFLAV: the IC50 with HLA-A*02:06 (source organism: SARS-CoV1) was determined as 2.6 nM; in the assay with HLA-A*02:01 (source organism: SARS-CoV1) it was 342 nM; in the assay with HLA-A*02:03 (source organism: SARS-CoV1) it was 22 nM; in the assay with HLA-A*68:02 (source organism: SARS-CoV1), 62 nM; in the assay with HLA-A*02:02 (source organism: SARS-CoV1) it was 2710 nM.

As for LVKDESIQL, the IC50 in the assay with HLA-A*02:06 (setting [1]) came out at 1400 nM; with HLA-A*02:01 (setting [1]), 3150 nM; with HLA-A*02:03 (setting [1]) it was 649 nM; in the assay with HLA-A*68:02 (setting [1]) it was 1470 nM; with HLA-A*02:02 (setting [1]), 122 nM.

For LVMDKNHAI, the IC50 with HLA-A*02:06 (setting [1]) came to 103 nM; with HLA-A*02:01 (setting [1]), 327 nM; in the assay with HLA-A*02:03 (setting [1]), 770 nM; with HLA-A*68:02 (setting [1]), 10 nM; in the assay with HLA-A*02:02 (setting [1]) it was 19 nM.

With LVSDCASTI, the concentration for half-maximal inhibition (IC50) is 61 nM with HLA-A*02:06 (setting [1]); 2740 nM with HLA-A*02:01 (setting [1]); 17 nM with HLA-A*02:03 (setting [1]); 71 nM with HLA-A*68:02 (setting [1]); 49 nM in the assay with HLA-A*02:02 (setting [1]).

For the sequence MAAAKTPVI, the IC50 in the assay with HLA-A*02:06 (setting [1]) stood at 672 nM; with HLA-A*02:01 (setting [1]), 1370 nM; in the assay with HLA-A*02:03 (setting [1]), 209 nM; in the assay with HLA-A*68:02 (setting [1]), 16 nM; with HLA-A*02:02 (setting [1]) it was 259 nM.

Regarding MAFDISVNA, the IC50 was found to be 13 nM in the assay with HLA-A*02:06 (setting [1]); 149 nM with HLA-A*02:01 (setting [1]); 15 nM with HLA-A*02:03 (setting [1]); 1.8 nM in the assay with HLA-A*68:02 (setting [1]); 191 nM in the assay with HLA-A*02:02 (setting [1]).

Take MAGVEVRYI: the IC50 came to 2050 nM with HLA-A*02:06 (setting [1]); 2310 nM in the assay with HLA-A*02:01 (setting [1]); 201 nM with HLA-A*02:03 (setting [1]); 583 nM with HLA-A*68:02 (setting [1]); 293 nM with HLA-A*02:02 (setting [1]).

On to MICCDSRIVV, for which the IC50 in the assay with HLA-A*02:06 (setting [1]) was 52 nM; with HLA-A*02:01 (setting [1]), 25 nM; in the assay with HLA-A*02:03 (setting [1]), 392 nM; with HLA-A*68:02 (setting [1]) it was 27 nM; with HLA-A*02:02 (setting [1]), 665 nM.

MIHKTYIDV: the IC50 with HLA-A*02:06 (setting [1]) amounted to 126 nM; with HLA-A*02:01 (setting [1]), 1920 nM; with HLA-A*02:03 (setting [1]), 15 nM; in the assay with HLA-A*68:02 (setting [1]), 269 nM; with HLA-A*02:02 (setting [1]) it was 1400 nM.

Turning to MIIGEPIIVA, the IC50 was found to be 124 nM in the assay with HLA-A*02:06 (setting [1]); 44 nM with HLA-A*02:01 (setting [1]); 111 nM with HLA-A*02:03 (setting [1]); 280 nM with HLA-A*68:02 (setting [1]); 42 nM in the assay with HLA-A*02:02 (setting [1]).

With MILMTHFFSI, the IC50 amounted to 307 nM with HLA-A*02:06 (setting [5]); 268 nM with HLA-A*02:01 (setting [5]); 1120 nM with HLA-A*02:03 (setting [5]); 883 nM with HLA-A*68:02 (setting [5]); 420 nM in the assay with HLA-A*02:02 (setting [5]).

With MIYDLNAVTT, the IC50 came out at 429 nM in the assay with HLA-A*02:06 (setting [1]); 278 nM with HLA-A*02:01 (setting [1]); 477 nM in the assay with HLA-A*02:03 (setting [1]); 114 nM in the assay with HLA-A*68:02 (setting [1]); 897 nM in the assay with HLA-A*02:02 (setting [1]).

In the case of MLFTKFFYL, the IC50 with HLA-A*02:06 (source organism: SARS-CoV1) was 1.4 nM; with HLA-A*02:01 (source organism: SARS-CoV1) it was 0.17 nM; with HLA-A*02:03 (source organism: SARS-CoV1), 17 nM; in the assay with HLA-A*68:02 (source organism: SARS-CoV1), 0.056 nM; with HLA-A*02:02 (source organism: SARS-CoV1) it was 0.085 nM.
